Measured values as given in publication PMC3916239, “Distinct DNA Binding Sites Contribute to the TCF Transcriptional Switch in C. elegans and Drosophila”.
Numbering of substitutions follows the chain as printed.

Key:
POP-1 [1] = target: T1, POP-1 (Caenorhabditis elegans, UniProt Q10666 1-438); assay: EMSA; 10 mM Tris-HCl pH 7.5, 50 mM KCl, 1 mM DTT, 5 mM MgCl2, 0.05% NP-40, 50 ug/ml poly(dI-dC), glycerol; 20 ul; 5 min on ice then 25 min room temperature; 6% native gel; settings: protein: recombinant, tags: 6xHis
T1 sequence: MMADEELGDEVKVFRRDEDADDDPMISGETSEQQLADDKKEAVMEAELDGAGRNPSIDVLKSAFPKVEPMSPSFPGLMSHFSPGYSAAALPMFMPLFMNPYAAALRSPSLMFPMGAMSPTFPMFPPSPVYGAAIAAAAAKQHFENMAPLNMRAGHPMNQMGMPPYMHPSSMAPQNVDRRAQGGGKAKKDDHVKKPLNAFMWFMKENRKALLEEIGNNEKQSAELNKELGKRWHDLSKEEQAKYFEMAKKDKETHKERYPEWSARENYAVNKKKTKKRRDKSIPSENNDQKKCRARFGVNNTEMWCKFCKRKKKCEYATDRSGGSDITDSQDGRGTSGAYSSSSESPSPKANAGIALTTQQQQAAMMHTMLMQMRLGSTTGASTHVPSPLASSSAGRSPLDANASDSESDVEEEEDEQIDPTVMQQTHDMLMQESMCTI

POP-1 [2] = target: T1, POP-1; assay: competition; no competition at 200-fold excess; 10 mM Tris-HCl pH 7.5, 50 mM KCl, 1 mM DTT, 5 mM MgCl2, 0.05% NP-40, 50 ug/ml poly(dI-dC), glycerol; 20 ul; 5 min on ice then 25 min room temperature; 6% native gel; settings: protein: recombinant; tags: 6xHis

B1: Y66D12A.9 probe (dsDNA)
DNA 1: TTGGCGCCGAGCACATATTTCCCATCGGAAGCTTTGAAATAGTCGAGCCCGCGGCCACTT
DNA 2: AAGTGGCCGCGGGCTCGACTATTTCAAAGCTTCCGATGGGAAATATGTGCTCGGCGCCAA
Does B1 bind (POP-1 [1]; label: biotin)?
Result: no binding

B2: R05G6.5 probe (dsDNA)
DNA 1: CGGTCGCCGCGCCAATGTGCTTGCCTTTGAACTCTCAATTTGCTGTTGTGGCGTGAT
DNA 2: ATCACGCCACAACAGCAAATTGAGAGTTCAAAGGCAAGCACATTGGCGCGGCGACCG
Does B2 bind (POP-1 [1]; label: biotin)?
Result: no binding

B3: K08D12.3 long WT probe (dsDNA)
DNA 1: CTGGCACGCGGCCAACATTCGATTTTGGGACGATCGACACGTTCTGGCCACATTTTCTTTGATTTTTTCTGATTTCGCCGACTTTTTTC
DNA 2: GAAAAAAGTCGGCGAAATCAGAAAAAATCAAAGAAAATGTGGCCAGAACGTGTCGATCGTCCCAAAATCGAATGTTGGCCGCGTGCCAG
Does B3 bind (POP-1 [1]; label: biotin (labeled probe))?
Result: binds

B4: K08D12.3 HMG mutant (dsDNA)
DNA 1: B3 DNA 1 with T59G, A62C, T63G
DNA 2: B3 DNA 2 with A27C, T28G, A31C
Does B4 bind (POP-1 [2])?
Result: no binding

B5: K08D12.3 Helper3 mutant (dsDNA)
DNA 1: B3 DNA 1 with G77T, C78A, C79A, G80T, A81C, C82A, T83G
DNA 2: B3 DNA 2 with A7C, G8T, T9G, C10A, G11T, G12T, C13A
Does B5 bind (POP-1 [2])?
Result: no binding

B6: psa-3 WRE WT probe 47 bp (dsDNA)
DNA 1: ACCGTTATGGCCGTGGAGGCTCTTTTGATGTGCAGCCGACAAGTACG
DNA 2: CGTACTTGTCGGCTGCACATCAAAAGAGCCTCCACGGCCATAACGGT
Does B6 bind (POP-1 [1]; label: biotin (labeled probe))?
Result: binds

B7: ceh-22b WRE WT probe 69 bp (dsDNA)
DNA 1: TACGAGAAGCGGCGATTCAAGAGTTTCAAATAACTTCTCCACCGCCTTTTGAAGTTGCCGAAAATAGTT
DNA 2: AACTATTTTCGGCAACTTCAAAAGGCGGTGGAGAAGTTATTTGAAACTCTTGAATCGCCGCTTCTCGTA
Does B7 bind (POP-1 [1]; label: biotin (labeled probe))?
Result: binds
